B1: ABHD5-luciferase(N) (alpha-beta hydrolase domain-containing 5, wild type) [mouse] / PLIN1-luciferase(C) (perilipin 1) [not stated] (parent)
chain 1: MKAMAAEEEVDSADAGGGSGWLTGWLPTWCPTSTSHLKEAEEKMLKCVPCTYKKEPVRISNGNRIWTLMFSHNISSKTPLVLLHGFGGGLGLWALNFEDLSTDRPVYAFDLLGFGRSSRPRFDSDAEEVENQFVESIEEWRCALRLDKMILLGHNLGGFLAAAYSLKYPSRVSHLILVEPWGFPERPDLADQERPIPVWIRALGAALTPFNPLAGLRIAGPFGLSLVQRLRPDFKRKYSSMFEDDTVTEYIYHCNVQTPSGETAFKNMTIPYGWAKRPMLQRIGGLHPDIPVSVIFGARSCIDGNSGTSIQSLRPKSYVKTIAILGAGHYVYADQPEEFNQKVKEICHTVD
chain 2: MSMNKGPTLLDGDLPEQENVLQRVLQLPVVSGTCECFQKTYNSTKEAHPLVASVCNAYEKGVQGASNLAAWSMEPVVRRLSTQFTAANELACRGLDHLEEKIPALQYPPEKIASELKGTISTRLRSARNSISVPIASTSDKVLGATLAGCELALGMAKETAEYAANTRVGRLASGGADLALGSIEKVVEFLLPPDKESAPSSGRQRTQKAPKAKPSLVRRVSTLANTLSRHTMQTTAWALKQGHSLAMWIPGVAPLSSLAQWGASAAMQVVSRRQSEVRVPWLHNLAASQDESHDDQTDTEGEETDDEEEEEESEAEENVLREVTALPNPRGLLGGVVHTVQNTLRNTISAVTWAPAAVLGTVGRILHLTPAQAVSSTKGRAMSLSDALKGVTDNVVDTVVHYVPLPRLSLMEPESEFRDIDNPSAEAERKGSGARPASPESTPRPGQPRGSLRSVRGLSAPSCPGLDDKTEASARPGFLAMPREKPARRVSDSFFRPSVMEPILGRAQYSQLRKKS
B2: ABHD5-luciferase(N) (alpha-beta hydrolase domain-containing 5, wild type) [mouse] / PLIN5-luciferase(C) (perilipin 5) [mouse] (parent)
chain 1: B1 chain 1
chain 2: MDQRGEDTTLAPHSRMSGDQTAQDPGSSLGELDQQNVVNRVVALPLVKATCTAVSSAYNSAKDRHPLLGSACRLAEHCVCSVTTCALDHAQPLLEHLQPQLATVNDLACRGLDKLEEKLPFLQQPSDMVVTSAKDTVAKSVTGMVDLAQRGRRWSGELRRSMSQAMDMVLGKSEKLVDRFLPMTEAELAVLAAEAEGPEVGTVEEQRQQQGYFVRLGSLSARLRHLAYEHSLGKLRQSKHRTQEMLAQLQETLELIQHMQRGASPSPTFHPPKTQELWGSWSPCLENGRSHSEVELETLALSRSLTLELQNAVDALAGCVRGLPPSAQAKVAEVQRSVDALQATFADAHCLGDVAPTALAEGRGSVARAHACVDEFLDLVLRAMPLPWLVGPFAPILVEQSEPLINLATCVDEVVGDPDPRWAHMDWPAQKRAWEAESADPGGQEAEPPRGQGKHTMMPELDF

In the first test the parent is B1. Description: luciferase protein complementation analysis, SR4995 dose-response. The settings on record: with PLIN1-luciferase(C) (perilipin 1); SR4995 titrated from 1e-8.5 to 1e-4 M; mean ± SD; read off a plot.
For chain 1 R299N, the IC50 (log10 M (log[SR4995])) is -6.7.

Turning to chain 1 G328S, the IC50 (log10 M (log[SR4995])) is -6.8.

The next test covers variants of B2. Described as above. The settings on record: with PLIN5-luciferase(C) (perilipin 5) [mouse]; SR4995 titrated from 1e-8.5 to 1e-4 M; mean ± SD; read off a plot.
chain 1 G328S: the IC50 (log10 M (log[SR4995])) was -7.2.

Consider chain 1 R299N, for which the IC50 (log10 M (log[SR4995])) is -6.5.

Source of the values: PMC5314347.
